These results are taken from publication PMC10569242, “VvWRKY5 enhances white rot resistance in grape by promoting the jasmonic acid pathway”.

The target in this data set is T1, VvWRKY5-HIS (Vitis vinifera, UniProt A0ABY9BGE3 8-330).
T1 sequence: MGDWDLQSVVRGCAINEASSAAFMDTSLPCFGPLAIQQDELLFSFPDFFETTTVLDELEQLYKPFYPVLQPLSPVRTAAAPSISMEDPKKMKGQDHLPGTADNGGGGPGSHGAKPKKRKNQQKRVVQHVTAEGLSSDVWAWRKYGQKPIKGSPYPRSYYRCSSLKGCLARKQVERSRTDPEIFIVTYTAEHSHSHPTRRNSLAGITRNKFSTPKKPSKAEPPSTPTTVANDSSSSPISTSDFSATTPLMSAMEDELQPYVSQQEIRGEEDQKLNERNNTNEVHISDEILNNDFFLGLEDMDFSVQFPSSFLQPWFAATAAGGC
Briefly: EMSA; unlabeled cold probe competitor 100x/200x; LightShift Chemiluminescent EMSA Kit (Beyotime); buffer, salt, pH and temperature not stated. The conditions noted are these: protein: recombinant; tags: His (pET-32a(+) fusion); blunt. On the technique in general: A gel shift assay detects complexes by their altered migration in electrophoresis.

B1: VvMYC2 W-box probe (dsDNA)
DNA 1: TAGGGTGGGGATTTGACCTGGGTCTGGAGATTCG
DNA 2: CGAATCTCCAGACCCAGGTCAAATCCCCACCCTA
B1: the binding result was “binds”.

B2: VvJAZ2 W-box probe (dsDNA)
DNA 1: TAAATCCTCACATCGGGTCAAGGATCGAGTATGC
DNA 2: GCATACTCGATCCTTGACCCGATGTGAGGATTTA
For the molecule B2, the binding result was “binds”.
